The values below come from patent US20120003149A1.

Numbering of substitutions follows the chain as printed.

Assay [1] has as its target full-length human GPR87 with an N-terminal FLAG tag, stably expressed on CHO cells (human). The assay is described as follows: flow cytometry, hGPR87 stable expression CHO cell line, antibody at 10 µg/mL (no primary antibody: 18.36). On the technique in general: In flow cytometry, cells or beads pass a laser one at a time.
Assay [2] has as its target human GPR87 (G protein-coupled receptor 87), endogenously expressed in Me180 cells (human). The assay is described as follows: flow cytometry, Me180 cells transfected with control siRNA, antibody at 10 µg/mL (no primary antibody: 10.71).
The target in assay [3] is full-length human GPR87 with an N-terminal FLAG tag, stably expressed on CHO cells (human). In words: flow cytometry, hGPR87 stable expression CHO cell line, antibody at 0.01 µg/mL (no primary antibody: 18.36).
The target is the same in assay [4]. The assay is described as follows: flow cytometry, hGPR87 stable expression CHO cell line, antibody at 0.1 µg/mL (no primary antibody: 18.36).
Assay [5] has as its target human GPR87 (G protein-coupled receptor 87), endogenously expressed in Me180 cells (human). In words: flow cytometry, Me180 cells transfected with siRNA against GPR87 (expression suppressed to 5.9% at the RNA level), antibody at 0.1 µg/mL (no primary antibody: 10.16).
Assay [6] deals with full-length human GPR87 with an N-terminal FLAG tag, stably expressed on CHO cells (human). In words: flow cytometry, hGPR87 stable expression CHO cell line, antibody at 1 µg/mL (no primary antibody: 18.36).
Assay [7] deals with human GPR87 (G protein-coupled receptor 87), endogenously expressed in Me180 cells (human). The assay is described as follows: flow cytometry, Me180 cells transfected with siRNA against GPR87 (expression suppressed to 5.9% at the RNA level), antibody at 10 µg/mL (no primary antibody: 10.16).
Assay [8] shares this target. In words: flow cytometry, Me180 cells transfected with control siRNA, antibody at 1 µg/mL (no primary antibody: 10.71).
Assay [9] has the same target. In words: flow cytometry, Me180 cells transfected with siRNA against GPR87 (expression suppressed to 5.9% at the RNA level), antibody at 1 µg/mL (no primary antibody: 10.16).
Assay [10] shares this target. In words: flow cytometry, Me180 cells transfected with control siRNA, antibody at 0.1 µg/mL (no primary antibody: 10.71).

human GPR87 (G protein-coupled receptor 87), endogenously expressed in Me180 cells (human), sequence (chain, as listed by the source): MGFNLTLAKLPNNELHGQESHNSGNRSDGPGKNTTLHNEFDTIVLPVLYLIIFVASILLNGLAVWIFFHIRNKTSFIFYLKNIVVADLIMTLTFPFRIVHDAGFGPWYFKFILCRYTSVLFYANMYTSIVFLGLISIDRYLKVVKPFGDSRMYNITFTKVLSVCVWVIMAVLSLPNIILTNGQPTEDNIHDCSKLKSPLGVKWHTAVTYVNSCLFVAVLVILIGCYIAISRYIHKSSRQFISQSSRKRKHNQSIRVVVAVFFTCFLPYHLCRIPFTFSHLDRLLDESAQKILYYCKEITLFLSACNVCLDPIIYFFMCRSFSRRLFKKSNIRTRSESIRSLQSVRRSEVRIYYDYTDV
full-length human GPR87 with an N-terminal FLAG tag, stably expressed on CHO cells (human), sequence (chain, as listed by the source): as above

B1: C0804 antibody (antibody, V domains shown)
VH: QIQLVQSGPELKKPGETVKISCKVSGYTFTDYSMHWVKQAPGKGLKWMAWINTETGKPTYADDFKGRFAFSLEASASTAYLQINNLKNEDTATYFCASLDYWGQGTTLTVSS
VL: DVLMTQTPLSLPVSLGDQASISCRSSQNVVHSSGNTYLEWFLQKPGQSPKLLIYKVSTRFSGVPDRFSGSGSGTDFTLKISRVEAEDLGVYYCFQGSHVPYTFGGGTKLEIKR
Consider B1, for which the geometric mean of the fluorescence intensity in assay [1] came out at 1240; in assay [2], 63.5; in assay [3] it was 28.9; in assay [4] it was 110; in [5], 10.3; in [6], 578. For the same molecule, the geometric mean of the fluorescence intensity is 20.6 in [7], 24.6 in assay [8], 12.9 in assay [9] and 12.9 in [10].

B2: C0815 antibody (antibody, V domains shown)
VH: B1 VH with K13N, A74T, N85T
VL: B1 VL with T58N
For the molecule B2, the geometric mean of the fluorescence intensity came to 1290 in assay [1]; 60.5 in assay [2]; 26.9 in assay [3]; 91.6 in assay [4]; 10.1 in assay [5]; 496 in assay [6]. The geometric mean of the fluorescence intensity in [7] turned out to be 22.4; in assay [8] it was 28.8; in assay [9] it was 13.6; in [10] it was 13.3.
